The data set concerns the target T1, ZafA ZF3-6 (Aspergillus fumigatus) (UniProt Q4WT96).
T1 sequence: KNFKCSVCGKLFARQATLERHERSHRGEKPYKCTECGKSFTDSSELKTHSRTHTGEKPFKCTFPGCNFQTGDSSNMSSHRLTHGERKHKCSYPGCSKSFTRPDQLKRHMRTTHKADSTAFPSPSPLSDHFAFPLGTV
As to the kind of experiment: EMSA.

Where two headings read alike, the source gives them in different places.

The results in this text go back to PMC6070888.

Regarding “TGGTACCTCTAGATGGCCATGGTGAGGCGAGGTGATAGGATTGGAAGAGTTCTAATTAACTGAGTAGAGAACTGTTGATTGTTGGTTGATGATGTTGGTGAGACTGAGAACTGAGGGGGTCTTTATATAGATGTTCAGCTATGCGGGGATGCGATCCTGGGGTAGGAGAGCACGTACGGGGCCCCGCTCGTTTGTGGCTCTCCGTGCGGACAT (double strand) [PalcA mutant (CAAGGT to CTCAGT)]”, the binding result is on record as “no binding”.
Take “ATGTCCGCACGGAGAGCCACAAACGAGCGGGGCCCCGTACGTGCTCTCCTACCCCAGGATCGCATCCCCGCATAGCTGAACATCTATATAAAGACCCCCAAGGTTCTCAGTCTCACCAACATCATCAACCAACAATCAACAGTTCTCTACTCAGTTAATTAGAACTCTTCCAATCCTATCACCTCGCCTCACCATGGCCATCTAGAGGTACCA (double strand) [PalcA wild type 213 bp EMSA fragment]”: the binding result (EMSA buffer 25 mM Tris-HCl pH 8, 50 mM KCl, 1 mM MgCl2, 12.5% glycerol, 1 mM DTT, 0.2 ug BSA, protein dialyzed in buffer with 10 uM ZnCl2, 30 C (EMSA 1 h …)) is given as “binds”.
